Reference: publication PMC11282289, “Serial X-ray liquidography: multi-dimensional assay framework for exploring biomolecular structural dynamics with microgram quantities” (Nature Communications, 2024)

Biological target: the molecule itself
Experiment: static small angle X-ray scattering (SAXS); conventional static SAXS, flow cell, no laser (ground state); difference scattering between wild type and monomeric mutant; 25 mM Tris pH 7.5, 100 mM NaCl, 2 mM DTT

B1: Arabidopsis thaliana UV-B resistance 8 (AtUVR8), wild type, residues 12-381 (domain or fragment, UniProt Q9FN03 12-381, looked up)
chain: APPRKVLIISAGASHSVALLSGDIVCSWGRGEDGQLGHGDAEDRPSPTQLSALDGHQIVSVTCGADHTVAYSQSGMEVYSWGWGDFGRLGHGNSSDLFTPLPIKALHGIRIKQIACGDSHCLAVTMEGEVQSWGRNQNGQLGLGDTEDSLVPQKIQAFEGIRIKMVAAGAEHTAAVTEDGDLYGWGWGRYGNLGLGDRTDRLVPERVTSTGGEKMSMVACGWRHTISVSYSGALYTYGWSKYGQLGHGDLEDHLIPHKLEALSNSFISQISGGWRHTMALTSDGKLYGWGWNKFGQVGVGNNLDQCSPVQVRFPDDQKVVQVSCGWRHTLAVTERNNVFAWGRGTNGQLGIGESVDRNFPKIIEALSVDG
notes: UV-B resistance 8 (UVR8), Arabidopsis thaliana, residues 12-381; Homodimer in the dark (ground) state; also called 2M-T-AtUVR8-His; source: E. coli BL21(DE3) GOLD, purified (IMAC, TEV cleavage, Q-Sepharose, MBPTrap flow-through); not shown: MBP-His-tag, N-terminal, cleaved
  binding result: binds
